What was measured:
[1] = target: rabbit skeletal muscle filamentous actin (rabbit) (UniProt P68135); test: co-sedimentation
[2] = target: rabbit skeletal muscle G-actin (rabbit) (UniProt P68135); test: ITC

Substance	Kd [1] [nM]	stoichiometry N (occidiofungin per actin monomer) [1]	Kd [2] [nM]	stoichiometry N (occidiofungin per G-actin) [2]	stoichiometry N (phalloidin per actin monomer) [1]
occidiofungin (native, unmodified) (peptide)	1000	24	1000	1	–
phalloidin (peptide)	8	–	–	–	0.6

— paper doi:10.1101/368720
